{
  "source": "paper PMC3973318",
  "binders": {"B1": {"name": "dsPPP25 (dsRNA)", "RNA 1": "GGGUAUAGACUGACUAGGAUCUCCC", "RNA 2": "GGGAGAUCCUAGUCAGUCUAUACCC", "modifications": "5' triphosphate on top strand"}, "B2": {"name": "dsPPP12 (dsRNA)", "RNA 1": "GCCCAGACCACC", "RNA 2": "GGUGGUCUGGGC", "modifications": "5' triphosphate on top strand"}, "B3": {"name": "ds12 (dsRNA)", "RNA 1": "GCCCAGACCACC", "RNA 2": "GGUGGUCUGGGC"}, "B4": {"name": "ds22 (dsRNA)", "RNA 1": "GGGUACAGACUGACUAGGAUCG", "RNA 2": "CGAUCCUAGUCAGUCUGUACCC"}, "B5": {"name": "ds18 (dsRNA)", "RNA 1": "GGGUAUAGACUGACUAGG", "RNA 2": "CCUAGUCAGUCUAUACCC"}, "B6": {"name": "ds34 (dsRNA)", "RNA 1": "GGAGUGCAUCUCCUUCCCUCCUUUCCUUCUGGUC", "RNA 2": "GACCAGAAGGAAAGGAGGGAAGGAGAUGCACUCC"}, "B7": {"name": "ds25 (dsRNA)", "RNA 1": "GGGUAUAGACUGACUAGGAUCUCCC", "RNA 2": "GGGAGAUCCUAGUCAGUCUAUACCC"}},
  "experiment_in_all_cases": "EMSA",
  "key": {"ΔN-DRH3 [1]": {"target": "T1, ΔN-DRH3 (Caenorhabditis elegans, UniProt Q93413 300-1119)", "T1 sequence": "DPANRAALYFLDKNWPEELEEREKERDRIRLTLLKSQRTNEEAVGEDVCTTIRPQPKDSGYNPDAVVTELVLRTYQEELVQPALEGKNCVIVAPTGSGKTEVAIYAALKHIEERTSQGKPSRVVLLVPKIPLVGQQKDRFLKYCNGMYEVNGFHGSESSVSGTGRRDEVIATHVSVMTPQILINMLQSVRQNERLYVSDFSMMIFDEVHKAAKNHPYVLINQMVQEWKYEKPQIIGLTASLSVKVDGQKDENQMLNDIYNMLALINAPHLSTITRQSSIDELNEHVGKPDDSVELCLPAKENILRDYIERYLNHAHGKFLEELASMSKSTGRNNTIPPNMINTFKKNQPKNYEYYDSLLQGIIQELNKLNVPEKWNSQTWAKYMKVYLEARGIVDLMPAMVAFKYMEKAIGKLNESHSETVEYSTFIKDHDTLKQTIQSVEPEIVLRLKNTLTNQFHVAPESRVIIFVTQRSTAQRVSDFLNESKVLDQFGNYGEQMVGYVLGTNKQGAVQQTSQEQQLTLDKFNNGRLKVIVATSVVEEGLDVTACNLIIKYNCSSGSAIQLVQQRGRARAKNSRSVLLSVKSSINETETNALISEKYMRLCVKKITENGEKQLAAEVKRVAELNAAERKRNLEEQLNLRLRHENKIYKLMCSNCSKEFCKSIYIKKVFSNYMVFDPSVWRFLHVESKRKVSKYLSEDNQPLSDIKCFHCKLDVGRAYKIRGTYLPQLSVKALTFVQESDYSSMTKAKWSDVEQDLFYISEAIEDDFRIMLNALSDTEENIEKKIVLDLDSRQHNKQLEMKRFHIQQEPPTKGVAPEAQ"}, "ΔN-DRH3 [2]": {"target": "T1, ΔN-DRH3", "remark": "listed apart in the source"}, "DRH-3 [3]": {"target": "T2, DRH-3 (Caenorhabditis elegans, UniProt Q93413 1-1119)", "T2 sequence": "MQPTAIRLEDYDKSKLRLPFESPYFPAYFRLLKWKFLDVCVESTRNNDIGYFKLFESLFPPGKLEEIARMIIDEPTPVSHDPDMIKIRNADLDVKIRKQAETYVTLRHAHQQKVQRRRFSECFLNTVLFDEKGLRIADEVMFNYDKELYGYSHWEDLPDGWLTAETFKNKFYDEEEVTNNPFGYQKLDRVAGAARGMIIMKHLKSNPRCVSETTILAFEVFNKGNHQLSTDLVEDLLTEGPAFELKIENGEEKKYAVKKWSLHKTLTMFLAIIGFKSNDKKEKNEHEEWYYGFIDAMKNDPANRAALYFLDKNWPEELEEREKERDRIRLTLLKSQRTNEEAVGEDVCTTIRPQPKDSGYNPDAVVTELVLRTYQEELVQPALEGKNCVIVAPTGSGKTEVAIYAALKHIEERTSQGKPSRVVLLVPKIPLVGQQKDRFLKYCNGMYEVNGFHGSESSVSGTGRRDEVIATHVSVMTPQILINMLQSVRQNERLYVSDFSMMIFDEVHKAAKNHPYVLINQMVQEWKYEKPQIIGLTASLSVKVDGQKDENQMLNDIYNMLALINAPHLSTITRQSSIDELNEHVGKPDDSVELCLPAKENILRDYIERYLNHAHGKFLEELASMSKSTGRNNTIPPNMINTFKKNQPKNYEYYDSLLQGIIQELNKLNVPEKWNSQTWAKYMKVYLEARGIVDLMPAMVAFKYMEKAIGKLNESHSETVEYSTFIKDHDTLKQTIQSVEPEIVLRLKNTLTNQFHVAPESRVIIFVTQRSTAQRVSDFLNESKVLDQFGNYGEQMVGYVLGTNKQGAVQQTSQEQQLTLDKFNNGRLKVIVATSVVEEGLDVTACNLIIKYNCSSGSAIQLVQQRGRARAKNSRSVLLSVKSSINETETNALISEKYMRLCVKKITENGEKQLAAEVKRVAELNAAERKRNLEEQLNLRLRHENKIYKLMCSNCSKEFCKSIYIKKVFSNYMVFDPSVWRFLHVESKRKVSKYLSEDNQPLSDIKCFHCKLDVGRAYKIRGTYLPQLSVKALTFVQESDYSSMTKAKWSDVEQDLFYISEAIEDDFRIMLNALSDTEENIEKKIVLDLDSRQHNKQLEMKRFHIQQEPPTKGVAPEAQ"}, "ΔN-DRH3 [4]": {"target": "T1, ΔN-DRH3", "remark": "listed apart in the source"}, "DRH-3 [5]": {"target": "T2, DRH-3", "remark": "listed apart in the source"}, "DRH-3 [6]": {"target": "T2, DRH-3", "remark": "listed apart in the source"}, "RIG-I": {"target": "T3, RIG-I (UniProt O95786 1-925)", "T3 sequence": "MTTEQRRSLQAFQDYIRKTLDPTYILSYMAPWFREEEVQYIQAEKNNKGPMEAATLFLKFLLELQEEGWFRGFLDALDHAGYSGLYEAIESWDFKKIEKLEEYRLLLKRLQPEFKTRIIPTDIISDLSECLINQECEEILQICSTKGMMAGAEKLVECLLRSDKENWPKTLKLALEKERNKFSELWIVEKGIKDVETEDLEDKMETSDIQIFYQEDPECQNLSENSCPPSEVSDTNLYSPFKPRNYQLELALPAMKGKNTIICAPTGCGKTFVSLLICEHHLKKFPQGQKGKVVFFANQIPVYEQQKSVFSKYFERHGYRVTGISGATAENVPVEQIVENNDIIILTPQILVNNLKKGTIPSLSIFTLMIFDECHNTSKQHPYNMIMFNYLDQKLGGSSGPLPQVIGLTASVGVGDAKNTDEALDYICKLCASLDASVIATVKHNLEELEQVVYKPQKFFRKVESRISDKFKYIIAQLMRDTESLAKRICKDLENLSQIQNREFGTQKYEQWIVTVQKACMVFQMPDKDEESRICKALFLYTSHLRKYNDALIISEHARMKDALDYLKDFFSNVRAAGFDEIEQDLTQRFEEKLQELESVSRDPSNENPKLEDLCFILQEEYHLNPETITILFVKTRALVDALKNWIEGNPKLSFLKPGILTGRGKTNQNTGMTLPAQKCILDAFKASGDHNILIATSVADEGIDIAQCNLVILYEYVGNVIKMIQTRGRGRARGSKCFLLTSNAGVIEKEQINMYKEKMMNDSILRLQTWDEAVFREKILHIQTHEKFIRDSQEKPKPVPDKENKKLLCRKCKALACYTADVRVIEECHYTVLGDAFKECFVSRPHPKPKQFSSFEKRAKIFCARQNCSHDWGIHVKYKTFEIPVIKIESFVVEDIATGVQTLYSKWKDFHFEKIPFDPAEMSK"}, "MDA-5": {"target": "T4, MDA-5 (human, UniProt Q9BYX4 1-1025)", "T4 sequence": "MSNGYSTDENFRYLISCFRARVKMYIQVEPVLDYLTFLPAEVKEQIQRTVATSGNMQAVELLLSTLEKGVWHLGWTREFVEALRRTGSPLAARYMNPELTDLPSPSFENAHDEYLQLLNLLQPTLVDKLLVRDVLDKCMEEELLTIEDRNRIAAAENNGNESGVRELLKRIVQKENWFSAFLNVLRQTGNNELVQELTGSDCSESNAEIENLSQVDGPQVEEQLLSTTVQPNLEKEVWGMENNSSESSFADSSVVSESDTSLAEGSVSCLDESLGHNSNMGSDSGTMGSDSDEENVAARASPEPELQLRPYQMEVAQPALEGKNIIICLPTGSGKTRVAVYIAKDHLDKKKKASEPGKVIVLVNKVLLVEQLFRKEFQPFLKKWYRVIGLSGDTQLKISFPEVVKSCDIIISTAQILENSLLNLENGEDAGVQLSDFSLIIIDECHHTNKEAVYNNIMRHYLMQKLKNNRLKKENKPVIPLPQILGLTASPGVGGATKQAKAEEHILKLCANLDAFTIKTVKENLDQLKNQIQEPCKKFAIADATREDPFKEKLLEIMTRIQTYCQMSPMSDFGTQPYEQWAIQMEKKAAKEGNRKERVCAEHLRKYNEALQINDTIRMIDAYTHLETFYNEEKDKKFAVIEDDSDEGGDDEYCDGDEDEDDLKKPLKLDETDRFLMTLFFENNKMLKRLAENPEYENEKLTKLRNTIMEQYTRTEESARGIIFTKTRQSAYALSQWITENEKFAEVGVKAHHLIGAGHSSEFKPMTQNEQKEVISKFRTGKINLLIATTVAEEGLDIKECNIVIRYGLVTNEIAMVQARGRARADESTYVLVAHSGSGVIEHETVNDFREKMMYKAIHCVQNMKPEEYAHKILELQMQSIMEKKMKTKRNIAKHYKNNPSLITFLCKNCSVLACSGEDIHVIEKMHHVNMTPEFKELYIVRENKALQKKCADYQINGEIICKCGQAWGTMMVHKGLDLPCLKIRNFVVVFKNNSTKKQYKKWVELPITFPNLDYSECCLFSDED"}, "ΔN-DRH3 [7]": {"target": "T1, ΔN-DRH3", "remark": "listed apart in the source"}},
  "note": "Read-outs that look alike come from different tables or passages of the source.",
  "data": [
    {"binder": "B1", "values": [
      {"measurement": "Kd", "setting": "ΔN-DRH3 [1]", "result": "120 ± 6", "unit": "nM"}
    ]},
    {"binder": "B2", "values": [
      {"measurement": "Kd", "setting": "ΔN-DRH3 [2]", "result": "174 ± 12", "unit": "nM"}
    ]},
    {"binder": "B3", "values": [
      {"measurement": "Kd", "setting": "DRH-3 [3]", "result": "839 ± 53", "unit": "nM"},
      {"measurement": "Kd", "setting": "ΔN-DRH3 [4]", "result": "522 ± 67", "unit": "nM"}
    ]},
    {"binder": "B4", "values": [
      {"measurement": "Kd", "setting": "DRH-3 [5]", "result": "230 ± 7", "unit": "nM"}
    ]},
    {"binder": "B5", "values": [
      {"measurement": "Kd", "setting": "DRH-3 [3]", "result": "679 ± 135", "unit": "nM"}
    ]},
    {"binder": "B6", "values": [
      {"measurement": "Kd", "setting": "DRH-3 [6]", "result": "384 ± 19", "unit": "nM"}
    ]},
    {"binder": "B7", "values": [
      {"measurement": "Kd", "setting": "RIG-I", "result": "38 ± 6", "unit": "nM"},
      {"measurement": "Kd", "setting": "MDA-5", "result": "123 ± 4", "unit": "nM"},
      {"measurement": "Kd", "setting": "ΔN-DRH3 [7]", "result": "376 ± 5", "unit": "nM"},
      {"measurement": "Kd", "setting": "DRH-3 [6]", "result": "218 ± 7", "unit": "nM"}
    ]}
  ]
}
